Results published in article PMC10876215, “Nucleosome conformation dictates the histone code” (eLife, 2024).
Where two headings read alike, the source gives them in different places.

Assays:
[1] = tested on: 21 bp double-stranded DNA; assay: NMR titration (1H-15N HSQC) of 15N-H4 tail peptide with dsDNA; type: binding; conditions: 30 μM peptide; DNA ratios up to 1:3; 20 mM MOPS pH 7.2, 150 mM KCl, 25 °C
Experimental: The histone H4 tail (residues 1–25 followed by a C-terminal tyrosine for quantification) was expressed from pGEX6p as a fusion with an N-terminal GST tag followed by a PreScission protease cleavage site (Supplementary file 2A). This was overexpressed in E. coli BL21 (DE3) (NEB) grown in M9 minimal media supplemented with vitamin (Centrum daily multivitamin), 1 g/L ^15NH4Cl, and 5 g/L D-glucose. Cells were grown to OD600 ~1.0 and induced with 0.5 mM IPTG at 37 °C for 4 hr. The ^15N-GST-H4 peptide fusion was purified on glutathione agarose resin (Thermofisher Scientific), cleaved with PreScission protease (16 hr at 4 °C), and products resolved by SEC (Superdex 75 10/300; GE Healthcare Life Sciences). […] Acquisition and deconvolution software used during data collection and analysis were MassLynx and MaxEnt, respectively. ^15N-H4 (1-25) peptide concentration was determined by UV-vis spectroscopy using the non-native C-terminal tyrosine.
Oligonucleotides (5’-[…]-3’ and the complement 5’-[…]-3’) for DNA titration NMR were from Integrated DNA Technologies (IDT). […] Duplex DNA was purified on a source 15Q column (GE Healthcare Life Sciences) and analyzed by 1% agarose gel. DNA was precipitated in ethanol, resuspended in ddH2O, and concentration was determined by UV-vis and the predicted extinction coefficient (ε260=333,804.5 M^–1 cm^–1). […]

BPTF PHD (6His-tagged) = biological target: T1, BPTF PHD (6His-tagged) (Homo sapiens, UniProt Q12830); assay: dCypher binding assay, histone peptides, 6His-PHD Query; conditions: Table (Ext. Figure 2A), 4PL fit, H3 1-20 top constrained (426889)
T1 construct: Q12830 (2865-2924); made in house; host or cells: E. coli BL21 (DE3)
Source text: (§1) Human BPTF (Uniprot Q12830) PHD finger-bromodomain (PHD-BD) and PHD finger were cloned into pGEX6p with an N-terminal Glutathione S-Transferase (GST) tag and a PreScission protease cleavage site (Supplementary file 2A and Figure 1—figure supplement 2). BPTF BD with an N-terminal 6xHistidine (6His) tag and Tobacco Etch Virus (TEV) protease cleavage site was from Addgene (plasmid 39111). The Q5 site-directed mutagenesis kit (New England Biolabs [NEB]) was used for domain addition/removal or single amino acid substitutions. All constructs were expressed in E. coli BL21 (DE3) (Thermo Fisher Scientific or NEB). Cells were grown to OD600 ~1.0 and induced with 0.8 mM IPTG at 18 °C for ~16 hr in LB (or M9 minimal media for NMR). M9 media was supplemented with vitamin (Centrum Adult), 1 g/L ^15NH4Cl, and 5 g/L D-glucose. For constructs containing the BPTF PHD finger all growth media and buffers were supplemented with 100 μM ZnCl2. For purification of BPTF recombinants cells were lysed by sonication, and lysates were incubated with either glutathione agarose (Thermo Fisher Scientific) or Ni-NTA resin (Thermo Fisher Scientific) to respectively enrich for GST- and 6His-tagged proteins. Fusion proteins were eluted with reduced L-glutathione or imidazole as appropriate. […] Protein concentrations were determined by UV-Vis spectroscopy. […]

BPTF BD (6His-tagged) [2] = biological target: T2, BPTF BD (6His-tagged) (Homo sapiens, UniProt Q12830); assay: dCypher binding assay, NCPs, 6His-BD Query
T2 construct: Q12830 (2914-3037); host or cells: E. coli BL21 (DE3)
Source text: Human BPTF (Uniprot Q12830) PHD finger-bromodomain (PHD-BD) and PHD finger were cloned into pGEX6p with an N-terminal Glutathione S-Transferase (GST) tag and a PreScission protease cleavage site (Supplementary file 2A and Figure 1—figure supplement 2). BPTF BD with an N-terminal 6xHistidine (6His) tag and Tobacco Etch Virus (TEV) protease cleavage site was from Addgene (plasmid 39111). The Q5 site-directed mutagenesis kit (New England Biolabs [NEB]) was used for domain addition/removal or single amino acid substitutions. All constructs were expressed in E. coli BL21 (DE3) (Thermo Fisher Scientific or NEB). […] Protein concentrations were determined by UV-Vis spectroscopy.
The dCypher approach (dCypher for brevity) was developed on the chemiluminescent bead-based, no-wash Alpha platform (PerkinElmer) for the high-throughput profiling of CAP binding to PTM-defined histone peptides and semi-synthetic nucleosomes (homotypic NCPs unless stated otherwise) ([Marunde et al., 2022a]; [Morgan et al., 2021]; [Weinberg et al., 2019]; [Dilworth et al., 2022]; [Weinberg et al., 2021]; [Jain et al., 2020]; [Lloyd et al., 2020]). […] The plate was incubated at room temperature in subdued lighting for 60 min and the Alpha signal was measured on a PerkinElmer 2104 EnVision (680 nm laser excitation, 570 nm emission filter ± 50 nm bandwidth). […]

BPTF BD (6His-tagged) [3] = biological target: T2, BPTF BD (6His-tagged); assay: dCypher binding assay, histone peptides, 6His-BD Query; conditions: Table (Ext. Figure 2A), 4PL fit, top constrained (496106)
Source text: as §1

BPTF PHD-BD (GST-tagged) [4] = biological target: T3, BPTF PHD-BD (GST-tagged) (Homo sapiens, UniProt Q12830); assay: dCypher binding assay, histone peptides, GST-PHD-BD Query
T3 construct: Q12830 (2865-3036); made in house; host or cells: E. coli BL21 (DE3)
Source text: as §1

[5] = tested on: GST-PHD^W2891A-BD (GST-PHD^mut-BD); type: binding, Human; conditions: for binding: NCPs
Source text: Human BPTF (Uniprot Q12830) PHD finger-bromodomain (PHD-BD) and PHD finger were cloned into pGEX6p with an N-terminal Glutathione S-Transferase (GST) tag and a PreScission protease cleavage site (Supplementary file 2A and Figure 1—figure supplement 2). BPTF BD with an N-terminal 6xHistidine (6His) tag and Tobacco Etch Virus (TEV) protease cleavage site was from Addgene (plasmid 39111). The Q5 site-directed mutagenesis kit (New England Biolabs [NEB]) was used for domain addition/removal or single amino acid substitutions. All constructs were expressed in E. coli BL21 (DE3) (Thermo Fisher Scientific or NEB). Cells were grown to OD600 ~1.0 and induced with 0.8 mM IPTG at 18 °C for ~16 hr in LB (or M9 minimal media for NMR). M9 media was supplemented with vitamin (Centrum Adult), 1 g/L ^15NH4Cl, and 5 g/L D-glucose. For constructs containing the BPTF PHD finger all growth media and buffers were supplemented with 100 μM ZnCl2. For purification of BPTF recombinants cells were lysed by sonication, and lysates were incubated with either glutathione agarose (Thermo Fisher Scientific) or Ni-NTA resin (Thermo Fisher Scientific) to respectively enrich for GST- and 6His-tagged proteins. Fusion proteins were eluted with reduced L-glutathione or imidazole as appropriate. For NMR, samples were cleaved from the GST tag using PreScission protease. All BPTF proteins were then further purified using anion exchange (Source 15Q, GE Healthcare Life Sciences) and size exclusion chromatography (SEC; Superdex 75, GE Healthcare Life Sciences). Protein concentrations were determined by UV-Vis spectroscopy.
The dCypher approach (dCypher for brevity) was developed on the chemiluminescent bead-based, no-wash Alpha platform (PerkinElmer) for the high-throughput profiling of CAP binding to PTM-defined histone peptides and semi-synthetic nucleosomes (homotypic NCPs unless stated otherwise) ([Marunde et al., 2022a]; [Morgan et al., 2021]; [Weinberg et al., 2019]; [Dilworth et al., 2022]; [Weinberg et al., 2021]; [Jain et al., 2020]; [Lloyd et al., 2020]). […]

BPTF PHD-BD (GST-tagged) [6] = biological target: T3, BPTF PHD-BD (GST-tagged); assay: dCypher binding assay, NCPs, GST-PHD-BD Query
Source text: as §1

Substance	DNA binding by CSPs (in words) [1]	Log EC50rel (BPTF PHD (6His-tagged)) [M]	binding (BPTF BD (6His-tagged) [2]; Ext. Figure 2G, 6His BD)	binding (BPTF BD (6His-tagged) [2]; Table (Ext. Figure 2B), 6His-BD)	Log EC50rel (BPTF BD (6His-tagged) [3]) [M]	preference over peptides containing each PTM class alone (in words) (BPTF PHD-BD (GST-tagged) [4])	binding ([5]; Figure 2B lower, PHDmut-BD W2891A)	binding to NCPs (in words) ([5]; GST-PHD^mut-BD)	binding ([5]; Table (Figure 2C), PHDmut-BD)	preference over H3K4me3 or H3tetra^ac (BPTF PHD-BD (GST-tagged) [6]) [fold]
^15N-H4 (1-25) peptide: histone H4 tail residues 1–25 followed by a C-terminal tyrosine, recombinant	the H4 tail bound DNA	–	–	–	–	–	–	–	–	–
H3K4me3tri^ac: histone H3 peptide H3K4me3K9acK14acK18ac (NMR version aa 1–34)	–	-7.000	no binding	no binding	-5.811	no preference	no binding	lost binding	no binding	> 20
